# Experimental data published in patent publication US6136558A, “Heregulin variants” (Genentech, Inc., priority 1998, dated 2000).
# Positions count from the first letter of the chain named. Ends that are not written are not given here.
# B1: HRG8 (wild-type HRG-β1 EGF displayed on phage) (ligand)
# chain: SHLVKCAEKEKTFCVNGGECFMVKDLSNPSRYLCKCPNEFTGDRCQNYVMAS
# B2: HRG8 (WT), soluble wild-type HRG-β1 EGF (ligand)
# chain: B1 chain
# modifications: ends and bridges not checked; cysteine pairing not given here
# B3: B3 (phage) (ligand)
# chain: B1 chain with A7G, K9E, E10R, K11E, T12G
# B4: D4 (phage) (ligand)
# chain: B1 chain with F21Y, M22R, D25T
# B5: I2 (phage) (ligand)
# chain: B1 chain with N47H, M50I
# B6: HRG2 (HRG-β1 177-244 displayed on phage) (ligand)
# chain: SHLVKCAEKEKTFCVNGGECFMVKDLSNPSRYLCKCPNEFTGDRCQNYVMASFYKHLGIEFMEAEELY
# B7: HRG-β1: recombinantly produced HRGβ1 177-244 (wild-type) (protein)
# chain: B6 chain
# modifications: ends and bridges not checked
# Columns and labels:
# [1] = target: ErbB-4 receptor-Ig fusion (human) (UniProt Q15303); assay: phage ELISA, soluble ErbB-4-Ig as competitor
# [2] = target: ErbB-3 receptor-Ig fusion (human) (UniProt P21860); assay: phage ELISA, soluble ErbB-3-Ig as competitor (only one value in the row, read as the phage column)
# ErbB-2/3-Ig = assay: Inhibition of 125I-HRG binding to ErbB-2/3-Ig by soluble variant
# ErbB-3-Ig [3] = assay: Phage ELISA, binding to ErbB-3-Ig; settings: for Phage ErbB-3 EC50 (wt)/EC50 (mut): relative to wild-type HRG-β1 EGF phage in same run, above 1 = higher affinity than wild-type
# From the text: (§1) To produce phage displaying the domains, mutagenesis reaction mixtures were electrotransformed into XL1-Blue™ cells (Stratagene, Inc., La Jolla, Calif.), according to the manufacturer's protocol. The transformed cells were then infected with 10^11 plaque-forming units (pfu) M13K07 helper phage (Promega Corp., Madison, Wis.). […] The phage were resuspended in phosphate-buffered saline (PBS: 0.01 M sodium phosphate, 0.1 M NaCl, pH 7.5).
# (§2) Microtiter plates (Nunc Maxisorp™ 96-well plates, Inter Med, Denmark) for phage ELISA were prepared as follows. The wells were precoated overnight with 0.5 μg of rabbit anti-human IgG (Fc gamma fragment-specific) antibodies (Jackson Immunoresearch, West Grove, Pa.) in 100 μL 50 mM NaCO3 (pH 9.6). The wells were blocked for 30 minutes (min) with 200 μL PBS containing 0.1% bovine serum albumin (BSA) and rinsed with wash buffer (PBS containing 0.05% Tween 20™). The wells were then coated with 0.1 μg ErbB-2/3-Ig in binding buffer (PBS, 0.1% BSA, 0.05% Tween 20™) for 1 h, and washed again.
# (§3) Following incubation for 2 h at room temperature, plates were washed extensively and treated with a 1:900 dilution of anti-M13 horseradish peroxidase conjugate (Pharmacia, Piscataway, N.J.) for 20 min. The amount of phage binding was determined by assaying horseradish peroxidase activity using o-phenylenediamine dihydrochloride) substrate solution (Sigma Chemical Company, St. Louis, Mo.).
# (§4) Alanine-substituted variants were generated by site-directed mutagenesis according to Kunkel et al., Methods Enzymol. […] A series of oligonucleotides was used to generate a series of constructs that expressed a series of variants in which consecutive residues were mutated to alanine.
# (§5) In addition, phagemid vectors for use in producing phage displaying mutated HRG-β1 EGFs containing various combinations of the above mutations ("combination variants") were prepared by Kunkel mutagenesis, using templates prepared from several of the above-described variants. […] Some of the variants and combination variants were also tested for relative ErbB-4-Ig affinity to assess specificity.
# (§6) The affinities of the variants for ErbB-3-Ig and ErbB-4-Ig were determined to assess specificity.
# [4] = target: ErbB-2/3 receptor-Ig fusion (ErbB-2/3-Ig); assay: Phage ELISA, competition with soluble ErbB-2/3-Ig; type: binding; settings: EGF-like domain displayed monovalently on phage as pIII fusion; soluble ErbB-2/3-Ig competing half of the phage off the plate; average of duplicate experiments
# From the text: as §1, §2, §3
# ErbB-4-Ig [5] = assay: Inhibition of 125I-HRG-β1 177-244 binding to ErbB-4-Ig by soluble protein
# Method: (§7) The affinities of the Trx-variant fusions for ErbB receptor-Ig fusions were determined by measuring inhibition of ^125 I-HRG-β1 177-244 binding to ErbB-3-Ig and ErbB-4-Ig. Receptor fusions were coated on plates (Nunc Maxisorp C™ break-apart strip wells, Inter Med, Denmark) via anti-human IgG, as described in Example 1 for phage ELISA. Binding assays were carried out with a constant amount of ^125 I-HRG-β1 177-244 (100-300 pM) and varying concentrations (100 pM-4 μM) of unlabeled Trx-variant fusion. Following incubation for 1-3 h at room temperature, plates were washed, and the amount of bound ^125 I-HRG-β1 177-244 in each well was counted on a gamma counter (Isodata, ICN Biomedic Systems, Huntsville, Ala.). For the ErbB-3 binding assays, the blocking buffer was TBST (0.025 M Tris-HC1 [pH 7.5], 0.15 M NaCl, 0.02% Tween 20™) containing 1% BSA; the binding buffer was RPMI 1640™ cell culture media (Gibco-BRL, Gaithersburg, Md.) containing 2 mM glutamine, 100 U/mL penicillin, 100 μg/mL streptomycin, 10 mM HEPES buffer (pH 7.2), 0.2% BSA; and the wash buffer was TBST. For the ErbB-4 binding assays, PBS containing 1% BSA was used as the blocking and binding buffers, and the wash buffer was PBS containing 0.05% Tween 20™.
# ErbB-4-Ig [6] = assay: Phage ELISA, binding to ErbB-4-Ig; settings: for Phage ErbB-4 EC50 (wt)/EC50 (mut): relative to wild-type HRG-β1 EGF phage in same run, above 1 = higher affinity than wild-type
# From the text: as §1, §2, §3, §4, §5, §6
# ErbB-3-Ig [7] = assay: Inhibition of 125I-HRG-β1 177-244 binding to ErbB-3-Ig by soluble protein
# Method: as §7
# [8] = target: ErbB-2/3 receptor-Ig fusion (human) (UniProt P04626); assay: phage ELISA, soluble ErbB-2/3-Ig as competitor
# [9] = target: ErbB-4 receptor-Ig fusion (human) (UniProt Q15303); assay: phage ELISA, ratio to wild-type HRG8 phage (reference itself)
# [10] = target: ErbB-3 receptor-Ig fusion (human) (UniProt P21860); assay: as above
# [11] = target: ErbB-3 receptor-Ig fusion (human) (UniProt P21860); assay: phage ELISA, soluble ErbB-3-Ig as competitor
# [12] = target: ErbB-4 receptor-Ig fusion (human) (UniProt Q15303); assay: phage ELISA, soluble ErbB-4-Ig as competitor; remark: listed apart in the source
# [13] = target: ErbB-4 receptor-Ig fusion (human) (UniProt Q15303); assay: displacement of 125I-HRG from ErbB-4-Ig
# [14] = target: ErbB-3 receptor-Ig fusion (human) (UniProt P21860); assay: displacement of 125I-HRG from ErbB-3-Ig
# [15] = target: ErbB-2/3 receptor-Ig fusion (human) (UniProt P04626); assay: displacement of 125I-HRG from ErbB-2/3-Ig
# [16] = target: ErbB-2/3 heterodimers on MCF7 breast cancer carcinoma cells (Homo sapiens (Human), UniProt P04626); assay: cell-based or functional assay
# [17] = target: ErbB-4 receptor-Ig fusion (human) (UniProt Q15303); assay: phage ELISA, ratio to wild-type HRG8 phage
# [18] = target: ErbB-3 receptor-Ig fusion (human) (UniProt P21860); assay: phage ELISA, ratio to wild-type HRG8 phage
molecule,measurement,setting,value
HRG-β1 177-244 V199A on phage (ligand),EC50,[1],47 nM
same,EC50,[2],27 nM
"HRG8: wild-type HRG-β1 177-228 minimal EGF-like domain; on phage via (GGGS)3 linker to pIII 323, or soluble (SHLVKCAEKEKTFCVNGGECFMVKDLSNPSRYLCKCPNEFTGDRCQNYVMAS; not fully specified; cysteine pairing not given here) [reference compound]",affinity for the 2/3-heterodimer versus the 3/3 homodimer,ErbB-2/3-Ig; ErbB-2/3-Ig versus ErbB-3-Ig homodimer,approximately 100 fold
same,EC50,"ErbB-2/3-Ig; soluble HRG-β1 EGF variant free of pIII, inhibition of 125I-HRG binding",0.033 ± 0.003 nM
same,EC50,"ErbB-3-Ig [3]; phage ELISA, reference value of Table 13, read-out: wild-type HRG-β1 EGF-phage EC50 for ErbB3-Ig",135 ± 104 nM
same,Phage ErbB-3 EC50 (wt)/EC50 (mut),ErbB-3-Ig [3]; phage ELISA,1
same,EC50,[4],11 nM
same,ErbB-2/3-Ig EC50,[4],slight affinity enhancement
same,EC50,"ErbB-4-Ig [5]; soluble HRG-β1 EGF variant free of pIII, inhibition of 125I-HRG binding, read-out: ErbB-4-Ig EC50",1.5 ± 0.1 nM
same,EC50,"ErbB-4-Ig [6]; phage ELISA, reference value of Table 13, read-out: wild-type HRG-β1 EGF-phage EC50 for ErbB4-Ig",163 ± 112 nM
same,Phage ErbB-4 EC50 (wt)/EC50 (mut),ErbB-4-Ig [6]; phage ELISA,1
same,EC50,"ErbB-3-Ig [7]; soluble HRG-β1 EGF variant free of pIII, inhibition of 125I-HRG binding, read-out: ErbB-3-Ig EC50",2.3 ± 0.2 nM
"G1: K211R, P213S, N214L (SHLVKCAEKEKTFCVNGGECFMVKDLSNPSRYLCRCSLEFTGDRCQNYVMAS)",Phage ErbB-3 EC50 (wt)/EC50 (mut),ErbB-3-Ig [3]; phage ELISA,1.2 ± 0.36
same,Phage ErbB-4 EC50 (wt)/EC50 (mut),ErbB-4-Ig [6]; phage ELISA,1.6
B1,EC50,[8],11 nM
same,EC50(wt)/EC50(mut),[9],1
same,EC50(wt)/EC50(mut),[10],1
same,EC50,[11],135 nM
same,EC50,[12],163 nM
B2,EC50,[13],1.5 nM
same,EC50,[14],2.3 nM
same,EC50,[15],0.033 nM
same,KIRA EC50 (tyrosine phosphorylation of the ErbB-2 receptor on MCF7 cells),[16],0.212 nM
B3,EC50(wt)/EC50(mut),[17],1.7
same,EC50(wt)/EC50(mut),[18],4.7
B4,EC50(wt)/EC50(mut),[17],5
same,EC50(wt)/EC50(mut),[18],2.9
B5,EC50(wt)/EC50(mut),[17],10
same,EC50(wt)/EC50(mut),[18],20
B6,EC50,[8],6 nM
same,EC50,[11],13 nM
same,EC50,[12],19 nM
B7,EC50,"ErbB-3-Ig [3]; alanine-substituted HRG-β1 177-244 displayed on phage, read-out: Phage EC50, binding to the ErbB-3 Receptor",13 nM
same,EC50,"ErbB-4-Ig [5]; soluble thioredoxin (Trx) fusion, inhibition of 125I-HRG-β1 177-244 binding, read-out: Sol EC50, binding to the ErbB-4 Receptor",14.8 nM
same,EC50,"ErbB-4-Ig [6]; alanine-substituted HRG-β1 177-244 displayed on phage, read-out: Phage EC50, binding to the ErbB-4 Receptor",19 nM
same,EC50,"ErbB-3-Ig [7]; soluble thioredoxin (Trx) fusion, inhibition of 125I-HRG-β1 177-244 binding, read-out: Sol EC50, binding to the ErbB-3 Receptor",9 nM
